Experimental data as given in patent US20040058393A1 (published 2004).
Numbering of substitutions follows the chain as printed. Blank lines part the entries; values can stand above or below the binder they belong to.

Assays:
[1] = molecular target: T1, human Integrin Associated Protein (IAP) expressed on mouse leukemia cell line L1210 (human, UniProt Q08722 19-323); assay: flow cytometry, COS7 supernatant on hIAP/L1210 cells, anti-FLAG and FITC anti-mouse IgG
T1 construct: whole, on cells; also called human IAP; hIAP/L1210
Method: Flow cytometry was performed using the aforementioned COS7 cells culture supernatant to measure the binding to the antigen. The culture supernatant of the COS7 cells expressing the reconstructed single chain Fv of antibody MABL-2 or the culture supernatant of COS7 cells transformed with pCHO1 vector as a control was added to 2×10⁵ cells of the mouse leukemia cell line L1210 expressing human Integrin Associated Protein (IAP) or the cell line L1210 transformed with pCOS1 as a control. After incubating on ice and washing, the mouse anti-FLAG antibody (SIGMA) was added. Then the cells were incubated and washed. Then, the FITC labeled anti-mouse IgG antibody (BECTON DICKINSON) was added thereto and the cells were incubated and washed again. Subsequently, the fluorescence intensity was measured using the FACScan apparatus (BECTON DICKINSON).
Flow cytometry was performed using the culture supernatants of COS7 cells prepared in Example 6.3 (1) to measure the binding of the MABL2-scFVs and sc(Fv)₂ to human Integrin Associated Protein (IAP) antigen. The culture supernatants to be tested or a culture supernatant of COS7 cells as a control was added to 2×10⁵ cells of the mouse leukemia cell line L1210 expressing human IAP. After incubating on ice and washing, 10 μg/mL of the mouse anti-FLAG antibody (SIGMA) was added and then the cells were incubated and washed. Then, the FITC labeled anti-mouse IgG antibody (BECTON DICKINSON) was added thereto and the cells were incubated and washed again. The fluorescence intensity was measured using the FACScan apparatus (BECTON DICKINSON). […] (see FIGS. 40a and 40b).

[2] = molecular target: T2, secretion-type human IAP antigen (human, UniProt Q08722 19-142, limits assumed); assay: competitive ELISA on captured secretion-type human IAP; competitor biotinized MABL-2
T2 construct: also called human IAP antigen (soluble, COS7 supernatant)
Method: The binding activity of the reconstructed single chain Fv of antibody MABL-2 was measured based on the inhibiting activity against the binding of mouse monoclonal antibodies to the antigen.
The anti-FLAG antibody adjusted to 1 μg/ml was added to each well on 96-well plate and incubated at 37° C. for 2 hours. After washing, blocking was performed with 1% BSA-PBS. After incubating and washing at a room temperature, the culture supernatant of COS7 cells into which the secretion-type human IAP antigen gene (SEQ ID No. 26) had been introduced was diluted with PBS into twofold volume and added to each well. After incubating and washing at a room temperature, a mixture of 50 μl of the biotinized MABL-2 antibody adjusted to 100 ng/ml and 50 μl of sequentially diluted supernatant of the COS7 cells expressing the reconstructed single chain Fv of antibody MABL-2 were added into each well. After incubating and washing at a room temperature, the alkaline phosphatase-conjugated streptoavidin (Zymed) was added into each well. After incubating and washing at a room temperature, the substrate solution (SIGMA) was added and absorbance of the reaction mixture in each well was measured at 405 nm.

[3] = molecular target: T3, human TPO receptor (MPL) expressed on Ba/F3 cells (human, UniProt P40238 26-635); assay: cell-based or functional assay
T3 sequence (looked up): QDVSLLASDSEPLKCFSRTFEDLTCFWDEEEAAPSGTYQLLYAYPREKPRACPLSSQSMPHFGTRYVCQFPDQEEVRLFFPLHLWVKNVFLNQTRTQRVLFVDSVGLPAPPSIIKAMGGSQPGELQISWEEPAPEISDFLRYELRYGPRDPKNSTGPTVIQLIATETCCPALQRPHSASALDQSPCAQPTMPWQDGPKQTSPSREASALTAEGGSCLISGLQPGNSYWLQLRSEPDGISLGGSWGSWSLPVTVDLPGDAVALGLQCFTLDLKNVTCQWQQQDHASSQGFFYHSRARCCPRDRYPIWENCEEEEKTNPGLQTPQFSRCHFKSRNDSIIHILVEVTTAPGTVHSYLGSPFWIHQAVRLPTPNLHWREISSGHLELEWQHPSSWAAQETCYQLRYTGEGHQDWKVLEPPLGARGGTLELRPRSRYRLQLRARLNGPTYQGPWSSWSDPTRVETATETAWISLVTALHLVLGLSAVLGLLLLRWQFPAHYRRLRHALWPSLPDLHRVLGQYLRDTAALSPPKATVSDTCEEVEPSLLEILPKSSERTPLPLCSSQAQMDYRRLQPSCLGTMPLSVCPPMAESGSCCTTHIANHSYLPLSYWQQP

[4] = molecular target: T1, human Integrin Associated Protein (IAP) …; assay: flow cytometry, COS7 supernatant on hIAP/L1210 cells, FITC anti-human IgG
Method: Flow cytometry was performed using the aforementioned culture supernatant of COS7 cells to measure binding to the antigen. The culture supernatant of the COS7 cells expressing the chimera MABL-1 antibody or the COS7 cells expressing the chimera MABL-2 antibody, or human IgG antibody (SIGMA) as a control was added to 4×10⁵ cells of mouse leukemia cell line L1210 expressing human IAP and incubated on ice. After washing, the FITC-labeled anti-human IgG antibody (Cappel) was added thereto. After incubating and washing, the fluorescence intensity thereof was measured using the FACScan apparatus (BECTON DICKINSON).

T1 sequence (Q08722 19-323): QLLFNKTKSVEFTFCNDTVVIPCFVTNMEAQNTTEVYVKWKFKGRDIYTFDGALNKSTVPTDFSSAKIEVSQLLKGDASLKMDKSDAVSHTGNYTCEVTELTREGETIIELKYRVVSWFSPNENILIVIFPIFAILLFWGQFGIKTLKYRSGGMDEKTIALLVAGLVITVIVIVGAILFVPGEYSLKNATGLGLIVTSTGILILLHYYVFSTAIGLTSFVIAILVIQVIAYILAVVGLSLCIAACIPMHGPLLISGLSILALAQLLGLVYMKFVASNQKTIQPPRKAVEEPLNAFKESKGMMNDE
T2 sequence (Q08722 other isoform, or with tags, fused parts or gaps limits assumed): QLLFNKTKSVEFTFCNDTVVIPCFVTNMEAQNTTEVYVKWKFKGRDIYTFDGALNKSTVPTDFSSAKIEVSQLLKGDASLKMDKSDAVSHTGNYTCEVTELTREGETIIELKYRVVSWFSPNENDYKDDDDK

binding result [1]: binds
B1: MABL2-scFv <HL-0> (scFv)
scFv: QVQLQQSGPELVKPGASVKMSCKASGYTFANHVIHWVKQKPGQGLEWIGYIYPYNDGTKYNEKFKDKATLTSDKSSTTAYMDLSSLASEDSAVYYCARGGYYTYDDWGQGTTLTVSSDVVMTQSPLSLPVSLGDQASISCRSSQSLVHSNGKTYLHWYLQKPGQSPKLLIYKVSNRFSGVPDRFSGSGSVTDFTLMISRVEAEDLGVYFCSQSTHVPYTFGGGTKLEIKDYKDDDDK
notes: COS7 culture supernatant; also called CF2HL-0/pCOS1

binding result [1]: binds
B2: antibody MABL-2 sc(Fv)2 (scFv)
scFv: QVQLQQSGPELVKPGASVKMSCKASGYTFANHVIHWVKQKPGQGLEWIGYIYPYNDGTKYNEKFKDKATLTSDKSSTTAYMDLSSLASEDSAVYYCARGGYYTYDDWGQGTTLTVSSGGGGSGGGGSGGGGSDVVMTQSPLSLPVSLGDQASISCRSSQSLVHSNGKTYLHWYLQKPGQSPKLLIYKVSNRFSGVPDRFSGSGSVTDFTLMISRVEAEDLGVYFCSQSTHVPYTFGGGTKLEIKGGGGSGGGGSGGGGSVDSQVQLQQSGPELVKPGASVKMSCKASGYTFANHVIHWVKQKPGQGLEWIGYIYPYNDGTKYNEKFKDKATLTSDKSSTTAYMDLSSLASEDSAVYYCARGGYYTYDDWGQGTTLTVSSGGGGSGGGGSGGGGSDVVMTQSPLSLPVSLGDQASISCRSSQSLVHSNGKTYLHWYLQKPGQSPKLLIYKVSNRFSGVPDRFSGSGSVTDFTLMISRVEAEDLGVYFCSQSTHVPYTFGGGTKLEIKDYKDDDDK
notes: Single chain bivalent antibody; also called pCHOM2(Fv)2

binding result [1]: binds
B3: MABL2-scFv <LH-0> (scFv)
scFv: DVVMTQSPLSLPVSLGDQASISCRSSQSLVHSNGKTYLHWYLQKPGQSPKLLIYKVSNRFSGVPDRFSGSGSVTDFTLMISRVEAEDLGVYFCSQSTHVPYTFGGGTKLEIKQVQLQQSGPELVKPGASVKMSCKASGYTFANHVIHWVKQKPGQGLEWIGYIYPYNDGTKYNEKFKDKATLTSDKSSTTAYMDLSSLASEDSAVYYCARGGYYTYDDWGQGTTLTVSSDYKDDDDK
notes: COS7 culture supernatant; also called CF2LH-0/pCOS1

binding result [2]: binds | binding result [1]: binds
B4: reconstructed single chain Fv of antibody MABL-2 (pCHOM2, COS7 culture supernatant) (scFv)
scFv: QVQLQQSGPELVKPGASVKMSCKASGYTFANHVIHWVKQKPGQGLEWIGYIYPYNDGTKYNEKFKDKATLTSDKSSTTAYMDLSSLASEDSAVYYCARGGYYTYDDWGQGTTLTVSSGGGGSGGGGSGGGGSDVVMTQSPLSLPVSLGDQASISCRSSQSLVHSNGKTYLHWYLQKPGQSPKLLIYKVSNRFSGVPDRFSGSGSVTDFTLMISRVEAEDLGVYFCSQSTHVPYTFGGGTKLEIKDYKDDDDK
notes: Unpurified COS7 supernatant; also called MABL2-scFv; MABL2-scFv/COS7

ED50, TPO-like agonist activity (proliferation of BaF/mpl cells, WST-8) [3]: 75 nM
B5: reconstructed 12B5 single chain Fv (sc12B5), culture supernatant of COS-7 cells (scFv)
scFv: QVQLVQSGGGLVRPGGSLSLSCAVSGITLRTYGMHWVRQAPGKGLEWVAGISFDGRSEYYADSVQGRFTISRDSSKNTLYLQMNSLRAEDTAVYYCARGAHYGFDIWGQGTMVTVSSGGGGSGGGGSGGGGSDIQMTQSPSTLSASIGDRVTITCRASEGIYHWLAWYQQKPGKAPKLLIYKASSLASGAPSRFSGSGSGTDFTLTISSLQPDDFATYYCQQYSNYPLTFGGGTKLEIKDYKDDDDK

ED50, TPO-like agonist activity (proliferation of BaF/mpl cells, WST-8) [3]: 10.1 nM | fold agonist activity against monovalent sc12B5 [3]: ~400 fold
B6: sc12B5 dimer (scFv)
scFv: B5 scFv

ED50, TPO-like agonist activity (proliferation of BaF/mpl cells, WST-8) [3]: 4440 nM
B7: sc12B5 monomer (scFv)
scFv: B5 scFv

binding result [4]: binds
B8: chimera MABL-1 antibody (antibody, V domains shown)
VH: QVQLQQSGPDLVKPGASVKMSCKASGYTFVNHVMHWVKQKPGQGLEWIGYIYPYNDGTKYNEKFKGKATLTSEKSSSAAYMELSSLASEDSAVYYCARGGYYSYDDWGQGTTLTVSS
VL: DVVMTQTPLSLPVSLGDQASISCRSSQSLLHSKGNTYLQWYLQKPGQSPKLLIYKVSNRFSGVPDRFSGSGSGTDFTLKISRVEAEDLGVYFCSQSTHVPYTSGGGTKLEIK
notes: Mouse V regions cloned into HEF-gamma and HEF-kappa vectors with human C regions; COS7 culture supernatant

binding result [4]: binds
B9: chimera MABL-2 antibody (antibody, V domains shown)
VH: B8 VH with D10E, V30A, M34I, G66D, E73D, S77T, A78T, E82D, S103T
VL: B8 VL with T7S, L30V, K33N, N35K, Q39H, G73V, K79M, S103F
notes: as for B8

ED50, TPO-like agonist activity (proliferation of BaF/mpl cells, WST-8) [3]: 29 nM
B10: antibody 12B5 (IgG) (antibody, V domains shown)
VH: QVQLVQSGGGLVRPGGSLSLSCAVSGITLRTYGMHWVRQAPGKGLEWVAGISFDGRSEYYADSVQGRFTISRDSSKNTLYLQMNSLRAEDTAVYYCARGAHYGFDIWGQGTMVTVSS
VL: DIQMTQSPSTLSASIGDRVTITCRASEGIYHWLAWYQQKPGKAPKLLIYKASSLASGAPSRFSGSGSGTDFTLTISSLQPDDFATYYCQQYSNYPLTFGGGTKLEIK

ED50, TPO-like agonist activity (proliferation of BaF/mpl cells, WST-8) [3]: 34700 nM
B11: 12B5Fab (Fab, V domains shown)
VH: B10 VH
VL: B10 VL
